Our source for the Kd, IC50 and percent reduction of luminescence values is publication PMC8054679.

One assay addresses Hsp70 (Homo sapiens). The following applies: cited from earlier work.
Another assay addresses SmBiT-CHIP-FLAG. The assay is described as follows: split reporter.

Chain of SmBiT-CHIP-FLAG (Q9UNE7 whole entry): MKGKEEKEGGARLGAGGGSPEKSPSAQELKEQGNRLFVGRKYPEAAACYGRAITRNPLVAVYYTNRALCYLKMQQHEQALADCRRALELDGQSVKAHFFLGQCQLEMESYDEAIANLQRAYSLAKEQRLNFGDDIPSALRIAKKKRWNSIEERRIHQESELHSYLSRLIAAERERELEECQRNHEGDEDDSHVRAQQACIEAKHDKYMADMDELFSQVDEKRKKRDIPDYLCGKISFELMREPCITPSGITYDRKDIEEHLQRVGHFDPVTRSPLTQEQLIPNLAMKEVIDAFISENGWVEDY
Chain of CHIP TPR (Q9UNE7 21-154): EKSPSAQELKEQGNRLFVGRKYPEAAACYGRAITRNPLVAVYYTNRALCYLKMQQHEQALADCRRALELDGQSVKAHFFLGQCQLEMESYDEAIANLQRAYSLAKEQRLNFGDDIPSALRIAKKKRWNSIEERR

A word on the Kd: it is the constant that tells how readily two partners part at equilibrium. As for CHIP TPR (from UniProt Q9UNE7), the Kd with Hsp70 (Homo sapiens) was 0.6 µM.
One may read the IC50 as the point on the concentration scale where inhibition reaches its midpoint. A lower IC50 goes with greater potency. Consider “R9-LWWPD (peptide; other documents disagree on this pair)”, for which, in the assay with SmBiT-CHIP-FLAG, the IC50 is 2.6 µM and the percent reduction of luminescence at 10 μM was 40%.
